Data as given in article PMC8675206.

B1: 25bp blunt (dsDNA)
DNA 1: AAGCTTGCATGCCTGCAGGTCGACC
DNA 2: GGTCGACCTGCAGGCATGCAAGCTT
B2: 100bp blunt (dsDNA)
DNA 1: GCACAATCTTCTCGCGCAACGCGTCAGTGGGCTGATCATTAACTATCCGCTGGATGACCAGGATGCCATTGCTGTGGAAGCTGCCTGCACTAATGTTCCG
DNA 2: CGGAACATTAGTGCAGGCAGCTTCCACAGCAATGGCATCCTGGTCATCCAGCGGATAGTTAATGATCAGCCCACTGACGCGTTGCGCGAGAAGATTGTGC

Legend:
DNA-PKcs = DNA-PKcs (Homo sapiens (HeLa cells), UniProt P78527 1-4128); assay: HX-MS on bead-captured DNA
DNA-PKcs;Ku70;Ku80 = DNA-PKcs;Ku70;Ku80 (Homo sapiens (HeLa cells);Homo sapiens …, UniProt P78527;P12956;P13010 1-4128;2-609;2-732, ||); assay: pull-down

Sequence of DNA-PKcs (P78527 whole entry): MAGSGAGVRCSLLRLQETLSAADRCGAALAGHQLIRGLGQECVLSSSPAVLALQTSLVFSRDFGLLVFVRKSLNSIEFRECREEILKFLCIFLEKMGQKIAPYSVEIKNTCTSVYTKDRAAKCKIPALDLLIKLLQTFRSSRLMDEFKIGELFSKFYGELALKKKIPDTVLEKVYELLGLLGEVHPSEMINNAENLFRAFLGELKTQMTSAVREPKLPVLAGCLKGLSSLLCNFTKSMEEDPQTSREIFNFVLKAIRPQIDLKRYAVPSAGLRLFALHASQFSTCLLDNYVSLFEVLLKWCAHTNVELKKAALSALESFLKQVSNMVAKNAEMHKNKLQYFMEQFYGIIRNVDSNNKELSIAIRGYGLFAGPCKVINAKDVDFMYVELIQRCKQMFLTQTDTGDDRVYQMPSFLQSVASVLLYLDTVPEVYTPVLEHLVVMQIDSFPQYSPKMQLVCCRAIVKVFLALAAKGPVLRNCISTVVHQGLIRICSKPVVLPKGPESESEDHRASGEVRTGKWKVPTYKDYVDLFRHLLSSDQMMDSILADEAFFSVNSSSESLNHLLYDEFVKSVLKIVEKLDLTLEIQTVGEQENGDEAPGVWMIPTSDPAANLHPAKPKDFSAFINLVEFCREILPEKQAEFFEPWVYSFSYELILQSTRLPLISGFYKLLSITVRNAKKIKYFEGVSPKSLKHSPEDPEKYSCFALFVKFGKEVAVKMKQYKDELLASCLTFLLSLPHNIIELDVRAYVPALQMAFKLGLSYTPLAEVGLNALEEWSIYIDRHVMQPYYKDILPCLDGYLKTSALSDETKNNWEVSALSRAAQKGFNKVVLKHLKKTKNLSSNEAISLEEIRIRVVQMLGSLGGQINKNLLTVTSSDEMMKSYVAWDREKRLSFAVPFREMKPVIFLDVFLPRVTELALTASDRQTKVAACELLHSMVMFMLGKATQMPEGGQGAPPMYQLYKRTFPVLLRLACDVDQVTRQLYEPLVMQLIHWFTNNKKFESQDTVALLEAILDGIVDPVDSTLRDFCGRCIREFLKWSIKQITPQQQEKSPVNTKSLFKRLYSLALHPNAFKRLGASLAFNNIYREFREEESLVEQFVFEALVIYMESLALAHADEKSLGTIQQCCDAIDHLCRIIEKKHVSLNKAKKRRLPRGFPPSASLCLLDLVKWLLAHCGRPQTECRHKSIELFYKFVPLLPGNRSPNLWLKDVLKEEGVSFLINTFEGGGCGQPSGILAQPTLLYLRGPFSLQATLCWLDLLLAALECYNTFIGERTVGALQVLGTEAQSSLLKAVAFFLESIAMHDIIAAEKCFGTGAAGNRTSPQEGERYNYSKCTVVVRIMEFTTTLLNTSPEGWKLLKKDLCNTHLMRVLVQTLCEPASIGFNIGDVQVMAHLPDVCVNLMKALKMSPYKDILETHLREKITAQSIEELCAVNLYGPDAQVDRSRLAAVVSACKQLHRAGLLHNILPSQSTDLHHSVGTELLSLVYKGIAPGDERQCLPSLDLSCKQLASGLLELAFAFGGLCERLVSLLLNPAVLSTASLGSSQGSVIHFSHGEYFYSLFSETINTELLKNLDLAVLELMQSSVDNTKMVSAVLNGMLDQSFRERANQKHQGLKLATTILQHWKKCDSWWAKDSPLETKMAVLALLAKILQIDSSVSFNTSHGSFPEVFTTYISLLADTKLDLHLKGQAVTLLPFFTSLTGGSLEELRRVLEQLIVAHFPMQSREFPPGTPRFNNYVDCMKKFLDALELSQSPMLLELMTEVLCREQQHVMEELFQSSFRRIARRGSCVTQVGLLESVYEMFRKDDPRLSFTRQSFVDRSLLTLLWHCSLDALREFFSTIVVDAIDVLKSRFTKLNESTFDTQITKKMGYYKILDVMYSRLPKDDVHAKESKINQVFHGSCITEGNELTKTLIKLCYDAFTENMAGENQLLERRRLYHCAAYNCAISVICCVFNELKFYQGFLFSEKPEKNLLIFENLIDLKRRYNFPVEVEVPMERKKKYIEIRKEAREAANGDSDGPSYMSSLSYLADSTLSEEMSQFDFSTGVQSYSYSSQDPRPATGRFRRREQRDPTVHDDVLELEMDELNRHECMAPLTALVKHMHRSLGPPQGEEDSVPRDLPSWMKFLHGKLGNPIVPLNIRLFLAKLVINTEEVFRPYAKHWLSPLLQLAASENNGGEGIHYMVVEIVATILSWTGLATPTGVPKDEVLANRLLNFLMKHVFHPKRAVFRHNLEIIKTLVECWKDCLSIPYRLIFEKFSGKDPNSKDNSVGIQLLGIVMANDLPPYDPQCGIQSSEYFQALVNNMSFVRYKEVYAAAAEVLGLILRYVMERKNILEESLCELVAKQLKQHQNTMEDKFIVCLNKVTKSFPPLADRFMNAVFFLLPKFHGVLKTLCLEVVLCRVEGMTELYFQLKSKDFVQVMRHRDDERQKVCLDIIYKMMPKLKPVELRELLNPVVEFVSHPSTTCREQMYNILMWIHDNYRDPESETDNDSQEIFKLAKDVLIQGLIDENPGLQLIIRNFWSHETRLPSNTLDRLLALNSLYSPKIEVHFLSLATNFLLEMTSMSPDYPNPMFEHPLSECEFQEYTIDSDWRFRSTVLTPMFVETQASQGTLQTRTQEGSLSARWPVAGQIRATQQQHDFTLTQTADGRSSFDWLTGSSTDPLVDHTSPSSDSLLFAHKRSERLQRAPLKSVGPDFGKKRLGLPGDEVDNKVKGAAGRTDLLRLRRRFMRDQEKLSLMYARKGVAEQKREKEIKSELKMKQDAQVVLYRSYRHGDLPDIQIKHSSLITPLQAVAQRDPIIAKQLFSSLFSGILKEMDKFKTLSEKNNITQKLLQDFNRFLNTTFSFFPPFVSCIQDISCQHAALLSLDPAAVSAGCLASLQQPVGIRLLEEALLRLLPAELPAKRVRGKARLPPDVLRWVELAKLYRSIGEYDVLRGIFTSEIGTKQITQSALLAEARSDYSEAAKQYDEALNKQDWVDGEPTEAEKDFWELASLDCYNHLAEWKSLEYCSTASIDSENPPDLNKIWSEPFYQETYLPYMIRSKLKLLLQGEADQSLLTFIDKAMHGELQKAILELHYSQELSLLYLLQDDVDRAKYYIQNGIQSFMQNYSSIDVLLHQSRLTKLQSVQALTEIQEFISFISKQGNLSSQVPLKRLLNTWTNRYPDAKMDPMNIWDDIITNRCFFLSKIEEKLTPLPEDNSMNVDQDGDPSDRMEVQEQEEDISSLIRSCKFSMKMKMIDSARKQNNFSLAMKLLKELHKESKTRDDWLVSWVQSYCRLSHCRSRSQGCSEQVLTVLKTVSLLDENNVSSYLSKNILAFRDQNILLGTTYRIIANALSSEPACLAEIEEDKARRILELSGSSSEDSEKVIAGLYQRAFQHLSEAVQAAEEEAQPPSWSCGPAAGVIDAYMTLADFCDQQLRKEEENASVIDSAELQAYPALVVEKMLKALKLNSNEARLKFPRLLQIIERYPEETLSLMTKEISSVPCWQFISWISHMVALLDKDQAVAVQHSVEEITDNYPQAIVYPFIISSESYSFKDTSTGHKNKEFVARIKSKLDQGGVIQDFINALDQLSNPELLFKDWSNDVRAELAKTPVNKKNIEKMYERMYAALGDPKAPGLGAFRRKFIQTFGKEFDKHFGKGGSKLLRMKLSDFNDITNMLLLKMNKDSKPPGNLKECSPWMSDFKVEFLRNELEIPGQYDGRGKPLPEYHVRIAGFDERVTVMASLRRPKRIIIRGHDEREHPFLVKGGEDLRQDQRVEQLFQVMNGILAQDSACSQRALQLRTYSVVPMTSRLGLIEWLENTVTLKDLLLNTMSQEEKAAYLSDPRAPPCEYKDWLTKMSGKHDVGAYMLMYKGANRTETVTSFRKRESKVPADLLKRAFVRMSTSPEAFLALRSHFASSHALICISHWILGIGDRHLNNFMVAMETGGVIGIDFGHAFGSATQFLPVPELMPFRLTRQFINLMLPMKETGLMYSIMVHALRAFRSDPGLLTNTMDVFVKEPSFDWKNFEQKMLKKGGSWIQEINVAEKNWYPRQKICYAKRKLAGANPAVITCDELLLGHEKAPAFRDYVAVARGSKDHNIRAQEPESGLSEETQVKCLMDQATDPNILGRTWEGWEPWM

| Binder | binding result (DNA-PKcs) | binding result (DNA-PKcs;Ku70;Ku80) |
| --- | --- | --- |
| B1 | binds | – |
| B2 | – | binds |
